The results in this text go back to patent publication US20120076780A1.

Like-named read-outs stand apart in the source and are kept apart here.

Assay [1] concerns the target ErbB-1 (EGFR) on human cancer cells (SCC-1, SCC-9, C1-1 clone 3, C1-1 clone 7) (human) (UniProt P00533). Kind of assay: cell-based or functional assay.
Assay [2] shares this target. Put plainly: cell-based or functional assay. The source holds these as a separate data set.
The target is the same in assay [3]. Put plainly: cell-based or functional assay. The source holds these as a separate data set.
For assay [4], the target named is ErbB2 on human tumor cells (SKBR3, A431, T47D, MCF7, MDA-MB231) (human) (UniProt P04626). Put plainly: cell-based or functional assay.
The target is the same in assay [5]. Put plainly: whole-cell ELISA on SKBR3 cells, anti-PE detection, after 24 h at 37 C in 100% human serum.
The target in assay [6] is MUC1 on cells (T47D, MCF7, DA3-MUC1) (human) (UniProt P15941). Put plainly: whole-cell ELISA on T47D cells; apparent affinity from the half-maximal binding signal. (In general: An ELISA detects its analyte on a solid surface through an enzyme-linked reagent.)
Assay [7] addresses MUC1, secreted isoform from conditioned medium of MUC1-transfected DA3 cells (UniProt P15941). Put plainly: ELISA on coated MUC1 conditioned medium; apparent affinity from the half-maximal binding signal.

For the substance “cetuximab-ZZ-PE38 complex (non-cross linked)”, in assay [1], the IC50, cell survival, XTT assay, SCC-1 cells is 0.47 ng/mL and the percent of SCC-1 cells killed at 0.001 µg/ml of immunotoxin complex was determined as 80%. In assay [2], this substance came in with an IC50, cell survival, XTT assay, C1-1 prostate cancer cells clone 3 of 12 ng/mL; an IC50, cell survival, XTT assay, C1-1 prostate cancer cells clone 7 of 38 ng/mL; an IC50, cell survival, XTT assay, SCC-1 cells of 0.261 ng/mL; an IC50, cell survival, XTT assay, SCC-9 cells of 0.073 ng/mL. In addition, the IC50, cell survival, XTT assay, SCC-1 cells in assay [3] worked out at 0.31 ng/mL.

In assay [4], “chFRP5-ZZ-PE38 immunoconjugate (from UniProt P01857 1-330)” came in with an IC50 (ng/ml), cell killing, MTT assay 48 h, MCF7 cells of 600 ng/mL; an IC50 (ng/ml), cell killing, MTT assay 48 h, MDA-MB231 cells above 10000 ng/mL; an IC50 (ng/ml), cell killing, MTT assay 48 h, T47D cells of 1000 ng/mL; an IC50 (pM), cell killing, MTT assay, A431 cells of 10 pM. Moreover, the IC50 (pM), cell killing, MTT assay, MCF7 cells in assay [4] is 300 pM. The decrease of binding activity in assay [5] was determined as 17%.

For the substance “chimeric H23 IgG1 (from UniProt P01857 1-330) (antibody)”, the Kd in assay [6] and in assay [7] was 0.3 nM in each case.

For the substance “cross-linked cetuximab-ZZ-PE38 immunotoxin complex”, the IC50, cell survival, XTT assay, SCC-1 cells in assay [3] came out at 7.54 ng/mL.

Regarding murine H23 mAb (antibody), the Kd in assay [6] worked out at 0.25 nM; in assay [7], 0.2 nM.

Substance scFv(FRP5)-ETA yielded an IC50 (pM), cell killing, MTT assay, A431 cells in assay [4] of 52 pM.
